The results in this text go back to patent US8445006B2, “Biomolecular coating for implants” (Georgia Tech Research Corporation, priority 2006, dated 2013).

For one assay, the target named is T1, αvβ3 integrin (Mus musculus, UniProt O54890+P43406).
T1 construct: endogenous in cells; host or cells: MC3T3-E1 murine osteoblast-like cells
T1 sequence (P43406 31-885 limits assumed): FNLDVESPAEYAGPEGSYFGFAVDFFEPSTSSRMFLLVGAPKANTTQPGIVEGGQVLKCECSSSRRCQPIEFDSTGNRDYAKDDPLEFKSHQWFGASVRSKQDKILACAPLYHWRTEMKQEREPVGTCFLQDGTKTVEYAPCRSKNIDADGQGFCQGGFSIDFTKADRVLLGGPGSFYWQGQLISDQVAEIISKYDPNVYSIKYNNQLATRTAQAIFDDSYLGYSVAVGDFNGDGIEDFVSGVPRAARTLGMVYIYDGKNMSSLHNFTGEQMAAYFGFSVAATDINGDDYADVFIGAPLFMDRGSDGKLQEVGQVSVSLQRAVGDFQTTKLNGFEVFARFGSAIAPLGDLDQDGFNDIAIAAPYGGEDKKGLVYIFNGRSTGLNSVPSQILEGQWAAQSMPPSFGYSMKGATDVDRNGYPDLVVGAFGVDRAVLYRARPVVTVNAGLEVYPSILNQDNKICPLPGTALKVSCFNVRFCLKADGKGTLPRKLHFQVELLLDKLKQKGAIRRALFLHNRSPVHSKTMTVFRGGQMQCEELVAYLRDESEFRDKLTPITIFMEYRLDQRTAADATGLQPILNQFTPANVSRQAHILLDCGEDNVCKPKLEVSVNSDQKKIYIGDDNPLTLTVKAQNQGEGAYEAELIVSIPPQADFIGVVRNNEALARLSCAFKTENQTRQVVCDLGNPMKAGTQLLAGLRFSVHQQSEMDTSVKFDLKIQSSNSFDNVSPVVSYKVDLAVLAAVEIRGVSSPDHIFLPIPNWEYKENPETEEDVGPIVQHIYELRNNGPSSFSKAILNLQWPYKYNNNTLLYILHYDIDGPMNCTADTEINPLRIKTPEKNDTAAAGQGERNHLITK
T1 sequence (P43406 887-1044 limits assumed): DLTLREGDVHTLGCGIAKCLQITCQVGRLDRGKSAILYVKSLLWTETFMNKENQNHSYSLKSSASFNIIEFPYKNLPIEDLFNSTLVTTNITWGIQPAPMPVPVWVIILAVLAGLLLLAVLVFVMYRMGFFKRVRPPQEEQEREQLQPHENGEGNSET
T1 sequence (O54890 26-787): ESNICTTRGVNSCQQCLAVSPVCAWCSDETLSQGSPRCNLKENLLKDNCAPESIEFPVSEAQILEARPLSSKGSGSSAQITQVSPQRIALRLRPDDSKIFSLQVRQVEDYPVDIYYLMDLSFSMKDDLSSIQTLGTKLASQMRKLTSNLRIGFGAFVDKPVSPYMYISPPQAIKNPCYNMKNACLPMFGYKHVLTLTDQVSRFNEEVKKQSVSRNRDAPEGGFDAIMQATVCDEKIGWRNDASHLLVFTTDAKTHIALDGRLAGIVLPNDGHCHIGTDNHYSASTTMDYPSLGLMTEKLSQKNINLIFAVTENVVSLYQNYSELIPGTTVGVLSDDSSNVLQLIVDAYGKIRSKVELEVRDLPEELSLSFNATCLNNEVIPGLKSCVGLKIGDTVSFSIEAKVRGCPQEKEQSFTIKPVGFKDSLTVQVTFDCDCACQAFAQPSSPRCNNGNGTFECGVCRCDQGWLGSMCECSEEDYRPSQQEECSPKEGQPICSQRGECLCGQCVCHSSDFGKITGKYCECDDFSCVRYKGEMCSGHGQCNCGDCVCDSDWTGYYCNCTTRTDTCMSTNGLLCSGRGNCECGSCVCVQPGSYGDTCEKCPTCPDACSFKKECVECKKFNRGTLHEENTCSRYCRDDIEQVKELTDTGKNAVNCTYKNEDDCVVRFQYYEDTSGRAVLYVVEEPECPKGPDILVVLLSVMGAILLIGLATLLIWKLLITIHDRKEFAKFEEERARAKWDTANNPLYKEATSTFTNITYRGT
As to the kind of experiment: Crosslinking/extraction immunostaining of bound integrin. The following applies: 4 h on saturated ligand-functionalized SAMs. In kind it is cell-based, murine. The procedure:
(§1) Surfaces were prepared on either 6-well plate lids or 35 mm tissue culture dishes, and cells seeded at 75 cells/mm^2 in serum-containing media for 4 h at 37° C. For integrin staining, a cross-linking/extraction biochemical method that selectively isolates bound integrins was employed. Cells were washed, and 1.0 mM DTSSP (Pierce) was added for 15 min to cross-link ligated integrins. After quenching with 50 mM Tris, uncrosslinked cellular components were extracted in 0.1% SDS supplemented with protease inhibitors (350 μg/ml PMSF). Samples were then blocked in 5% FBS for 1 h and incubated with integrin-specific antibodies for 1 h at 37° C. Fluorochrome-labeled secondary antibodies were then incubated for 1 h at 37° C. Following washing, samples were mounted on slides with Gel/Mount mounting media (Biomeda, Foster City, Calif.). For staining of focal adhesions, cells were extracted in 0.5% Triton X-100 in ice-cold cytoskeleton buffer (50 mM NaCl, 3 mM MgCl2, 150 mM sucrose, 20 μg/ml aprotonin, 1 μg/ml leupeptin, 1 mM PMSF, 50 mM Tris, pH 6.8) for 2 min and fixed in cold 3.7% formaldehyde in DPBS for 5 min. Cultures were blocked, subsequently incubated in anti-vinculin monoclonal antibody (1:70 in 5% FBS) and fluorochrome-labeled secondary antibodies for 1 h, and samples mounted on slides.
(§2) Since MC3T3-E1 cells assemble robust focal adhesions containing clustered integrins and intracellular structural and signaling proteins, integrin binding and focal adhesion assembly on the engineered interfaces was examined by staining for different integrin subunits and vinculin, which localizes to focal adhesions. MC3T3-E1 cells were allowed to adhere on each saturated ligand-functionalized support for 4 h and integrin binding was evaluated via a crosslinking/extraction and immunostaining protocol, which isolates integrins ligated to the ligand. […] The crosslinking and extraction technique relies in coupling free amines on both the receptor and ligand. Since the tethered RGD has no free amine, the αvβ3 staining in the RGD surfaces is attributed to focal adhesions that were not completely extracted. […] Both surfaces assembled focal adhesions containing vinculin.

The target in a further assay is T2, α5β1 integrin (Mus musculus, UniProt P09055+P11688).
T2 construct: endogenous in cells; host or cells: MC3T3-E1 murine osteoblast-like cells
T2 sequence (P11688 45-898 limits assumed): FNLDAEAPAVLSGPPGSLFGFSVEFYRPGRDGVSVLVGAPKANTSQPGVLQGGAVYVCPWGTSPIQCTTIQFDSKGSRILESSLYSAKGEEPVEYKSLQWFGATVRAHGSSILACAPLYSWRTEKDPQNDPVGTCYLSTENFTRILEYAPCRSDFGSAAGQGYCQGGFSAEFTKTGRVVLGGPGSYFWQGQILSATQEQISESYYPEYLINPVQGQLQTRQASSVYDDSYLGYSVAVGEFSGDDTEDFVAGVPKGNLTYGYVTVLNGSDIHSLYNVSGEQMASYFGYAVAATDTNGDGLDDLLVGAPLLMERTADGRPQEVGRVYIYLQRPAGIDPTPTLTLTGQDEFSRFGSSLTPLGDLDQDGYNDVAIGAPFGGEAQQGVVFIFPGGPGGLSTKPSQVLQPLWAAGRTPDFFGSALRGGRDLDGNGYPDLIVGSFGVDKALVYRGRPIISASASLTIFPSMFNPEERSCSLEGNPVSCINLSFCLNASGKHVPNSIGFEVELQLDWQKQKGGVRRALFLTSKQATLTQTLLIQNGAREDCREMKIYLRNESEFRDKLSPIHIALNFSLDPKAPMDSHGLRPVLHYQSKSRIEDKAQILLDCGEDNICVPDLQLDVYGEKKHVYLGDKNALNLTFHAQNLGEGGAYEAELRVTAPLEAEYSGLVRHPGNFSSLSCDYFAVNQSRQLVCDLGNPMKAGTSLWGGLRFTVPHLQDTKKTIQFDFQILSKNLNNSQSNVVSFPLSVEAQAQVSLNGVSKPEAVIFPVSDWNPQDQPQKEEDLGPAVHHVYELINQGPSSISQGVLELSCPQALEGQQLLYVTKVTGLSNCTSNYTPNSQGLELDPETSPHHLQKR
T2 sequence (P11688 899-1053 limits assumed): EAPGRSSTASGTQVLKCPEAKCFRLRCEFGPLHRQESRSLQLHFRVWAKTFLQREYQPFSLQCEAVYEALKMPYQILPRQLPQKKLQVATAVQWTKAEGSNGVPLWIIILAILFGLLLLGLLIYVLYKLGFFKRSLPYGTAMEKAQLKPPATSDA
T2 sequence (P09055 21-798): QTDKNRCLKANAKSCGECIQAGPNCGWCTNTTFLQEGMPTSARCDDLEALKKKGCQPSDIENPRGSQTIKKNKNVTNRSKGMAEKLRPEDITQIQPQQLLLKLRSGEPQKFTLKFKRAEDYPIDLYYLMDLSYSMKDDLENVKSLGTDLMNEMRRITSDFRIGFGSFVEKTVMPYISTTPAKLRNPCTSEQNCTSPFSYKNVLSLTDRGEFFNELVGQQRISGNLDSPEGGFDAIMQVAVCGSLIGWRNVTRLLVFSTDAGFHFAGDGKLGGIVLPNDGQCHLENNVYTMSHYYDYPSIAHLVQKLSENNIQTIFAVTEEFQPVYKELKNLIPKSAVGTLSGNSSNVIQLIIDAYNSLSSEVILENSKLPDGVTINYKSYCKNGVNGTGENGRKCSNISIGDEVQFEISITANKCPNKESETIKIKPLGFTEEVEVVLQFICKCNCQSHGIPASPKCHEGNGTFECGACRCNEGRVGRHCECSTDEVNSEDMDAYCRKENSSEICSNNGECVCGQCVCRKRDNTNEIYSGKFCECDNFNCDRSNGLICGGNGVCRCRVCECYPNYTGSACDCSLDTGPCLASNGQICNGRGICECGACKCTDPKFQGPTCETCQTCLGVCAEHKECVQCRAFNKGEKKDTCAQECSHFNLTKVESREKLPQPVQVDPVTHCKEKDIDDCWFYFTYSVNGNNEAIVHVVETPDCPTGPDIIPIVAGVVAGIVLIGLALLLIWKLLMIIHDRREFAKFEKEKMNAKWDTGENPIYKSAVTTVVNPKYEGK
The assay is described as above. The assay is classed as cell-based, murine. The following applies: 4 h on saturated ligand-functionalized SAMs. As to the method: as §1, §2

“FNIII7-10: monobiotinylated recombinant fibronectin fragment spanning the 7-10th type III repeats of fibronectin; α5β1 integrin ligand”: the “bound αvβ3 integrin staining” value with αvβ3 integrin is listed as “minimal αvβ3 binding”. Also, the “bound α5β1 integrin staining” value in the assay with α5β1 integrin was “robust, well-defined adhesive structures containing α5β1 integrins”.
The like results for “GRGDSPC [RGD peptide, linear RGD oligopeptide purchased from BACHEM; primarily supports αvβ3-mediated adhesion, reference compound]” were, in that order, “clustering of αvβ3” and “little staining for α5β1”.
